From article PMC10632456, “Cryo-EM structures of human magnesium channel MRS2 reveal gating and regulatory mechanisms” (Nature Communications, 2023)

Molecular target: the molecule itself
Test: cryo-EM structure; purified MRS2 at about 0.5 mg/ml in 20 mM HEPES, 150 mM NaCl, 40 mM MgCl2, 0.003% LMNG, pH 7.3; C5 and C1 reconstructions

B1: human MRS2 (Mitochondrial RNA Splicing 2 magnesium channel) (natural protein, UniProt Q9HD23 71-443, looked up)
chain: TSDVSQATLASVAPVFTVTKFDKQGNVTSFERKKTELYQELGLQARDLRFQHVMSITVRNNRIIMRMEYLKAVITPECLLILDYRNLNLEQWLFRELPSQLSGEGQLVTYPLPFEFRAIEALLQYWINTLQGKLSILQPLILETLDALVDPKHSSVDRSKLHILLQNGKSLSELETDIKIFKESILEILDEEELLEELCVSKWSDPQVFEKSSAGIDHAEEMELLLENYYRLADDLSNAARELRVLIDDSQSIIFINLDSHRNVMMRLNLQLTMGTFSLSLFGLMGVAFGMNLESSLEEDHRIFWLITGIMFMGSGLIWRRLLSFLGRQLEAPLPPMMASLPKKTLLADRSMELKNSLRLDGLGSGRSILTNR
notes: MRS2, human, UniProt Q9HD23; The full-length precursor was expressed; No step that removes the tag is described; also called HsMRS2; MRS2-Mg2+
- stoichiometry N: 5
